Test results: patent US20240336909

Key:
[1] = test system: AxCT mask27 EGFR EH104 L001 version 1
[2] = test system: AxCT mask27 EGFR EH104 L040 version 1
[3] = test system: AxCT mask27 EGFR EH104 L041 version 1
[4] = test system: AxCT mask27 EGFR EH104 L043 version 1
[5] = test system: AxCT mask27 EGFR EH104 L054 version 1
[6] = test system: AxCT mask27 EGFR EH104 L055 version 1
[7] = test system: AxCT mask27 EGFR EH104 L056 version 1
[8] = test system: AxCT mask27 EGFR EH104 L057 version 1
[9] = test system: AxCT mask27 EGFR EH104 L058 version 1
[10] = test system: AxCT mask27 EGFR EH104 L059 version 1
[11] = test system: AxCT mask27 EGFR EH104 L060 version 1
[12] = test system: AxCT mask27 EGFR EH104 L061 version 1
[13] = test system: AxCT mask27 EGFR EH104 L062 version 1
[14] = test system: AxCT mask27 EGFR EH104 L063 version 1
[15] = test system: AxCT mask27 EGFR EH104 L064 version 1
[16] = test system: AxCT mask27 EGFR EH104 L065 version 1
[17] = test system: AxCT mask27 EGFR EH104 L066 version 1
[18] = test system: AxCT mask27 EGFR EH104 L067 version 1
[19] = test system: AxCT mask27 EGFR EH104 L068 version 1
[20] = test system: AxCT mask27 EGFR EH104 L069 version 1
[21] = test system: AxCT mask27 EGFR EH104 L070 version 1
[22] = test system: AxCT mask27 EGFR EH104 L071 version 1
[23] = test system: AxCT mask27 EGFR EH104 L072 version 1
[24] = test system: AxCT mask27 EGFR EH104 L073 version 1
[25] = test system: AxCT mask27 EpCAM H90 L001 version 1
[26] = test system: AxCT mask27 EpCAM H90.2 L040 version 1
[27] = test system: AxCT mask27 EpCAM H90.2 L041 version 1
[28] = test system: AxCT mask27 EpCAM H90.2 L043 version 1
[29] = test system: AxCT mask27 EpCAM H90.2 L059 version 1
[30] = test system: AxCT mask27 EpCAM H90.2 L060 version 1
[31] = test system: AxCT mask27 EpCAM H90.2 L061 version 1
[32] = test system: AxCT mask27 EpCAM H90.2 L063 version 1
[33] = test system: AxCT mask27 EpCAM H90.2 L064 version 1
[34] = test system: AxCT mask27 EpCAM H90.2 L073 version 1
[35] = test system: AxCT mask27 EpCAM H90.2 L075 version 1
[36] = test system: AxCT mask27 EpCAM H90.2 L076 version 1
[37] = test system: AxCT mask27 EpCAM H90.2 NCLV

Chain of MMP-8 (chain, as listed by the source): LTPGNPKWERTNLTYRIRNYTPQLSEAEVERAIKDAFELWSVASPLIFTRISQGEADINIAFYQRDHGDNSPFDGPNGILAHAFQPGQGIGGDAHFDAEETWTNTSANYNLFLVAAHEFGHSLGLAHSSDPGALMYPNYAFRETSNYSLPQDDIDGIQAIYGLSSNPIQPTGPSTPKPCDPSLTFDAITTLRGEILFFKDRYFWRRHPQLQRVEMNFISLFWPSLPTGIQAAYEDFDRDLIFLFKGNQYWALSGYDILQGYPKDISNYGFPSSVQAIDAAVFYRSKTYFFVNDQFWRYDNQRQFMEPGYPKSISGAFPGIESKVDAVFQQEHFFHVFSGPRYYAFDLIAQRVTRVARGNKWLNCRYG
Chain of MMP-9 (chain, as listed by the source): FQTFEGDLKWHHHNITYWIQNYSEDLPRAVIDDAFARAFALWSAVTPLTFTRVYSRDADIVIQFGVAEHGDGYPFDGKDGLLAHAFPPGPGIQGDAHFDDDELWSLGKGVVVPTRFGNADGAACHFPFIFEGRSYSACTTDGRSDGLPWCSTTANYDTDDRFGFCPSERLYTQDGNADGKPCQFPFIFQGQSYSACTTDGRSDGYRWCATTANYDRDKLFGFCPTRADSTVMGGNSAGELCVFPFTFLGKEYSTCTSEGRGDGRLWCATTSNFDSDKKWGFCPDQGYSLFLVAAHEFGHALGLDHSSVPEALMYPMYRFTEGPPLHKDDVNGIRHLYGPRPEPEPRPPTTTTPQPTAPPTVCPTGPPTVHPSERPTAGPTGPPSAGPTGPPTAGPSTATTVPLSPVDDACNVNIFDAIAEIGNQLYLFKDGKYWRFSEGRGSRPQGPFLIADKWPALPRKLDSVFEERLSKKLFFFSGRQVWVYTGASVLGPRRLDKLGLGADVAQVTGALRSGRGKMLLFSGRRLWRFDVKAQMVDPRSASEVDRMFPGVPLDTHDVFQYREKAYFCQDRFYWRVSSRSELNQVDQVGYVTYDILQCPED

Substance	Percent cleavage [1]	Percent cleavage [2]	Percent cleavage [3]	Percent cleavage [4]	Percent cleavage [5]	Percent cleavage [6]	Percent cleavage [7]	Percent cleavage [8]	Percent cleavage [9]	Percent cleavage [10]	Percent cleavage [11]	Percent cleavage [12]	Percent cleavage [13]	Percent cleavage [14]	Percent cleavage [15]	Percent cleavage [16]	Percent cleavage [17]	Percent cleavage [18]	Percent cleavage [19]	Percent cleavage [20]	further results
MMP-8	44%	6%	0%	0%	8%	29%	7%	11%	0%	18%	0%	15%	6%	0%	7%	18%	0%	13%	0%	16%	Percent cleavage [21]: 0%; Percent cleavage [22]: 20%; Percent cleavage [23]: 0%; Percent cleavage [24]: 0%; Percent cleavage [25]: 61%; Percent cleavage [26]: 0%; Percent cleavage [27]: 0%; Percent cleavage [28]: 0%; Percent cleavage [29]: 25%; Percent cleavage [30]: 0%; Percent cleavage [31]: 25%; Percent cleavage [32]: 0%; Percent cleavage [33]: 8%; Percent cleavage [34]: 0%; Percent cleavage [35]: 0%; Percent cleavage [36]: 0%; Percent cleavage [37]: 0%
MMP-9	74%	63%	59%	20%	9%	75%	52%	57%	27%	32%	7%	54%	63%	21%	13%	70%	29%	50%	19%	29%	Percent cleavage [21]: 0%; Percent cleavage [22]: 46%; Percent cleavage [23]: 51%; Percent cleavage [24]: 11%; Percent cleavage [25]: 80%; Percent cleavage [26]: 60%; Percent cleavage [27]: 57%; Percent cleavage [28]: 7%; Percent cleavage [29]: 19%; Percent cleavage [30]: 0%; Percent cleavage [31]: 36%; Percent cleavage [32]: 8%; Percent cleavage [33]: 0%; Percent cleavage [34]: 0%; Percent cleavage [35]: 0%; Percent cleavage [36]: 17%; Percent cleavage [37]: 0%
